The text below walks through data of publication PMC6080939 (The Journal of Cell Biology, 2018).

Experiment in all cases: AFM single-cell force spectroscopy
Experiment [1] has as its target integrin α4β7 (human (endogenous in RPMI 8866–CXCR3)) (UniProt P13612).
The target is the same in experiment [2]. The source holds these as a separate data set.
For experiment [3] the target is unchanged. This is another data set of the same source.
The target is the same in experiment [4]. The source holds these as a separate data set.
For experiment [5] the target is unchanged. The source holds these as a separate data set.
The target is the same in experiment [6]. The source holds these as a separate data set.
The target of experiment [7] is T1, integrin α4β7 (human (endogenous in RPMI 8866–CXCR3), UniProt P13612 34-1032; P26010 20-798).
T1 sequence (P13612 34-1032, chain 1 of 2): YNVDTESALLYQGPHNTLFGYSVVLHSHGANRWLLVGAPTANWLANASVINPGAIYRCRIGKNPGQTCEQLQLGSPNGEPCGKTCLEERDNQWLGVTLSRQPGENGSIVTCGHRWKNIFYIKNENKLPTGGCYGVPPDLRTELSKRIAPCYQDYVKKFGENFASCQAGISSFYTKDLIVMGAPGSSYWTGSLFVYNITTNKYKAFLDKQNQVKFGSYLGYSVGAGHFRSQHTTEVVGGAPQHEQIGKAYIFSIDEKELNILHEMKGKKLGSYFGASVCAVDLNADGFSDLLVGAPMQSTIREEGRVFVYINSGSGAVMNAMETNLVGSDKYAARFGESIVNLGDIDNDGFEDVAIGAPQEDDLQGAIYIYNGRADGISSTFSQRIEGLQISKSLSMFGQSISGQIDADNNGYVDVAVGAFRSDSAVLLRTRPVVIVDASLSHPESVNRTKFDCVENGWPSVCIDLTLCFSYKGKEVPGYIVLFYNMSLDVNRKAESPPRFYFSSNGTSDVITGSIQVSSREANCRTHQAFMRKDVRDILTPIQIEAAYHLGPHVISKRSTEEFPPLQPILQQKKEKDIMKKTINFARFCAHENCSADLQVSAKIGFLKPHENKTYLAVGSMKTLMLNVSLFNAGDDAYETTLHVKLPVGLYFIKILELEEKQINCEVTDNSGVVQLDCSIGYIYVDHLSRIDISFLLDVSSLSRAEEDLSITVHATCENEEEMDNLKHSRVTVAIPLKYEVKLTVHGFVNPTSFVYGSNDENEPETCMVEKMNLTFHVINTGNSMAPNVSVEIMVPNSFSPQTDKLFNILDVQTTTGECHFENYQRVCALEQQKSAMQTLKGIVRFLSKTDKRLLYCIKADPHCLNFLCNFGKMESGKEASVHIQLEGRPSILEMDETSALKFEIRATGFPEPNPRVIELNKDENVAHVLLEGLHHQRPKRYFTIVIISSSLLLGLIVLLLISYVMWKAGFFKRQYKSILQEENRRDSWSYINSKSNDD
T1 sequence (P26010 20-798, chain 2 of 2): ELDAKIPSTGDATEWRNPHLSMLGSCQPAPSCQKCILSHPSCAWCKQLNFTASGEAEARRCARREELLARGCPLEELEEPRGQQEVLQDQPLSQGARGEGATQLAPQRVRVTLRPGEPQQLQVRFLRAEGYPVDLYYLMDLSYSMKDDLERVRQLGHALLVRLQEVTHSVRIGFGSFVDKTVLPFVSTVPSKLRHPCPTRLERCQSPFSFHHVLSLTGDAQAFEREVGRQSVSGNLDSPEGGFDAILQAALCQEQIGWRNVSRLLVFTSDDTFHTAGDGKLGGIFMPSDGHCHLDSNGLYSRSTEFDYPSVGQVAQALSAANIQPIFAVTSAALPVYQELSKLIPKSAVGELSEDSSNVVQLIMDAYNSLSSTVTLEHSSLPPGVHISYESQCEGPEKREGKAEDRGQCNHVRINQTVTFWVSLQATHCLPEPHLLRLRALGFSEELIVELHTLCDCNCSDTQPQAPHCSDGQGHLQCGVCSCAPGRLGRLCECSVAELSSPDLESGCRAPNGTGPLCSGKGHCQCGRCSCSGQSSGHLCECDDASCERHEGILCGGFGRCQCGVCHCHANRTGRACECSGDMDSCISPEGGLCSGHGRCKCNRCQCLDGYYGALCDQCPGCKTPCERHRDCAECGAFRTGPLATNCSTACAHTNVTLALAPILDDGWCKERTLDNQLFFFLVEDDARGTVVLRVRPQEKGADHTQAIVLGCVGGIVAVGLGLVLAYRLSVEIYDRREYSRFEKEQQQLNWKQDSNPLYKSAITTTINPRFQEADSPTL
Experiment [8] deals with T1, integrin α4β7. This is another data set of the same source.
In experiment [9] the target is T1, integrin α4β7. The source holds these as a separate data set.

Read-outs that look alike come from different tables or passages of the source.

integrin α4β7 (human (endogenous in RPMI 8866–CXCR3)), sequence (P13612 34-1032, chain 1 of 2): as the sequence (P13612 34-1032, chain 1 of 2) above
integrin α4β7 (human (endogenous in RPMI 8866–CXCR3)), sequence (P26010 20-798, chain 2 of 2, further chain): as the sequence (P26010 20-798, chain 2 of 2) above

“MAdCAM-1 (adsorbed on the surface for AFM single-cell force spectroscopy) (from UniProt Q13477 19-382) (ligand)”: the single-bond unbinding force in experiment [1] is 32 pN; in experiment [6] it was 35 to 80 pN. Also, the values for the adhesion frequency in [2], in [4] and in [6] were 25%, 55% and 31%, respectively. For the same molecule, the koff – broadly, a measure of how fast the partners let go of each other – was found to be 1.17 s⁻¹ in [3], 0.4 s⁻¹ in experiment [5] and 1.03 s⁻¹ in [6].

B1: VCAM-1 (adsorbed on the surface for AFM single-cell force spectroscopy) (ligand, human, UniProt P19320 25-698, looked up)
chain: FKIETTPESRYLAQIGDSVSLTCSTTGCESPFFSWRTQIDSPLNGKVTNEGTTSTLTMNPVSFGNEHSYLCTATCESRKLEKGIQVEIYSFPKDPEIHLSGPLEAGKPITVKCSVADVYPFDRLEIDLLKGDHLMKSQEFLEDADRKSLETKSLEVTFTPVIEDIGKVLVCRAKLHIDEMDSVPTVRQAVKELQVYISPKNTVISVNPSTKLQEGGSVTMTCSSEGLPAPEIFWSKKLDNGNLQHLSGNATLTLIAMRMEDSGIYVCEGVNLIGKNRKEVELIVQEKPFTVEISPGPRIAAQIGDSVMLTCSVMGCESPSFSWRTQIDSPLSGKVRSEGTNSTLTLSPVSFENEHSYLCTVTCGHKKLEKGIQVELYSFPRDPEIEMSGGLVNGSSVTVSCKVPSVYPLDRLEIELLKGETILENIEFLEDTDMKSLENKSLEMTFIPTIEDTGKALVCQAKLHIDDMEFEPKQRQSTQTLYVNVAPRDTTVLVSPSSILEEGSSVNMTCLSQGFPAPKILWSRQLPNGELQPLSENATLTLISTKMEDSGVYLCEGINQAGRSRKEVELIIQVTPKDIKLTAFPSESVKEGDTVIISCTCGNVPETWIILKKKAETGDTVLKSIDGAYTIRKAQLKDAGVYECESKNKVGSQLRSLTLDVQGRENNKDYFSPE
Consider B1, for which the off-rate (koff) in experiment [7] amounted to 0.83 s⁻¹; in [8], 1.58 s⁻¹; in experiment [9], 1.75 s⁻¹.
